Assay results published in publication PMC10139993.

T1: Fused in sarcoma (FUS) wildtype with N-terminal GFP tag, P35637
T1 chain: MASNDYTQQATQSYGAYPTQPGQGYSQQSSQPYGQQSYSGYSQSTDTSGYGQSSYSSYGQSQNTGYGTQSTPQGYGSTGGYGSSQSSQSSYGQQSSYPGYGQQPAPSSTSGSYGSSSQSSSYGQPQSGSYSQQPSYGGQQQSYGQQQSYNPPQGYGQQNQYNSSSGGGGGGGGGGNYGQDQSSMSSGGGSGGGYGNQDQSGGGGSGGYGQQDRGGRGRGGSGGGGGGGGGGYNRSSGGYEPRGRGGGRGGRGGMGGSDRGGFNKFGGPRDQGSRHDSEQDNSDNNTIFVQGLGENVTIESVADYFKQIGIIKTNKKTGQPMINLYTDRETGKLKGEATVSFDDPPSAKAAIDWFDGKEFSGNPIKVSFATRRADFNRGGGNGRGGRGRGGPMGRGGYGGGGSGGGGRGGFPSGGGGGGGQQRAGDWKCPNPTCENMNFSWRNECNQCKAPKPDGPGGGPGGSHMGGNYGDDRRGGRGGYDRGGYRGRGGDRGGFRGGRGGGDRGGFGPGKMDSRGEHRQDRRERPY


Legend:
[1] = target: GFP only (eGFP expressed from the pcDNA3.1(+)-N-eGFP backbone without gene insertion); assay: single-molecule pull-down (SiMPull) with GFP photobleaching step counting; diluted NP40 lysate (1:100-1:10,000 in T50: 10 mM Tris-Cl pH 8.0, 50 mM NaCl) of transfected SH-SY5Y cells flowed over a PEG/neutravidin surface with biotinylated anti-GFP antibody; 488 nm TIRF, room temperature; photobleaching steps counted per spot; 30% dimers subtracted for GFP self-dimerisation; cells without or with 0.4 M sorbitol 4 h (also arsenite) before lysis
[2] = target: T1, Fused in sarcoma (FUS) wildtype with …; assay: single-molecule pull-down (SiMPull) with GFP photobleaching step counting; diluted NP40 lysate (1:100-1:10,000 in T50: 10 mM Tris-Cl pH 8.0, 50 mM NaCl) of transfected SH-SY5Y cells flowed over a PEG/neutravidin surface with biotinylated anti-GFP antibody; 488 nm TIRF, room temperature; photobleaching steps counted per spot; 30% dimers subtracted for GFP self-dimerisation; cells without or with 0.4 M sorbitol 4 h …; conditions: remark: other sources report otherwise

percent dimers [1] [%]	percent monomers [1] [%]	average photobleaching step (after subtracting the GFP self-dimer fraction) [2] [steps]	increase in average photobleaching steps with sorbitol stress [2] [steps]	Molecule
30	70			GFP only (eGFP expressed from the pcDNA3.1(+)-N-eGFP backbone without gene insertion)
		1.5	0.5	Fused in sarcoma (FUS) wildtype with N-terminal GFP tag, P35637 1-526 (natural protein) MASNDYTQQATQSYGAYPTQPGQGYSQQSSQPYGQQSYSGYSQSTDTSGYGQSSYSSYGQSQNTGYGTQSTPQGYGSTGGYGSSQSSQSSYGQQSSYPGYGQQPAPSSTSGSYGSSSQSSSYGQPQSGSYSQQPSYGGQQQSYGQQQSYNPPQGYGQQNQYNSSSGGGGGGGGGGNYGQDQSSMSSGGGSGGGYGNQDQSGGGGSGGYGQQDRGGRGRGGSGGGGGGGGGGYNRSSGGYEPRGRGGGRGGRGGMGGSDRGGFNKFGGPRDQGSRHDSEQDNSDNNTIFVQGLGENVTIESVADYFKQIGIIKTNKKTGQPMINLYTDRETGKLKGEATVSFDDPPSAKAAIDWFDGKEFSGNPIKVSFATRRADFNRGGGNGRGGRGRGGPMGRGGYGGGGSGGGGRGGFPSGGGGGGGQQRAGDWKCPNPTCENMNFSWRNECNQCKAPKPDGPGGGPGGSHMGGNYGDDRRGGRGGYDRGGYRGRGGDRGGFRGGRGGGDRGGFGPGKMDSRGEHRQDRRERPY
